Assay results reported in article doi:10.1101/869214.

Target: calf collagen type I (calf) (UniProt P02453)
Experiment: ELISA

Chain of UniProt P02453 (P02453 162-1217, chain 1 of 2): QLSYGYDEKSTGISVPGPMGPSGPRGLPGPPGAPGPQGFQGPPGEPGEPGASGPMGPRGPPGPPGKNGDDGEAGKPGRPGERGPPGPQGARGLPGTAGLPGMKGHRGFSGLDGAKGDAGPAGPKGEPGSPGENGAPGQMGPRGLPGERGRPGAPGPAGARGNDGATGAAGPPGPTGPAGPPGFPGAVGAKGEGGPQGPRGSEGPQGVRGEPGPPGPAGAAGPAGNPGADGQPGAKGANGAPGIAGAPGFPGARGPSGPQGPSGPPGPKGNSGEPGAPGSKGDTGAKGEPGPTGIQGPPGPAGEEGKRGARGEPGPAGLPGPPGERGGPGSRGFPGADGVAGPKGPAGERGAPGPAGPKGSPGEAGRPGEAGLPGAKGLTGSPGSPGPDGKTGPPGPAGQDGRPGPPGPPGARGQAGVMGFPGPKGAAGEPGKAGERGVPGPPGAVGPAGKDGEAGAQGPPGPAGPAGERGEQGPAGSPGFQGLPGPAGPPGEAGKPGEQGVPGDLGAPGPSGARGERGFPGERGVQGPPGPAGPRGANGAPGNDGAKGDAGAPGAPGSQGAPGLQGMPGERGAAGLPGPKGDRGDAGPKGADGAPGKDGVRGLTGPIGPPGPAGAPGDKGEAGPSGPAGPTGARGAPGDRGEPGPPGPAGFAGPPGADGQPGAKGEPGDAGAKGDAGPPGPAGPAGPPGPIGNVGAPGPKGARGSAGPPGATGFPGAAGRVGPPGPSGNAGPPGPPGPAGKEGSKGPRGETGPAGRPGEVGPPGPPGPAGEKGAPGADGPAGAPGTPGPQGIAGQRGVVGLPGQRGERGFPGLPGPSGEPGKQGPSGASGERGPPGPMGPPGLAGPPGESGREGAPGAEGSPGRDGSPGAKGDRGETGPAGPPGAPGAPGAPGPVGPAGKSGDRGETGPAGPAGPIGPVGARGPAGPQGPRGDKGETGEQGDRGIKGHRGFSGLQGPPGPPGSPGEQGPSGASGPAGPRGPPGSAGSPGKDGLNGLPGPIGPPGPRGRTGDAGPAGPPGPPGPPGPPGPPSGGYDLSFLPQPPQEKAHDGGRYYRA
Chain of UniProt P02453 (P02465 80-1117, chain 2 of 2, further chain): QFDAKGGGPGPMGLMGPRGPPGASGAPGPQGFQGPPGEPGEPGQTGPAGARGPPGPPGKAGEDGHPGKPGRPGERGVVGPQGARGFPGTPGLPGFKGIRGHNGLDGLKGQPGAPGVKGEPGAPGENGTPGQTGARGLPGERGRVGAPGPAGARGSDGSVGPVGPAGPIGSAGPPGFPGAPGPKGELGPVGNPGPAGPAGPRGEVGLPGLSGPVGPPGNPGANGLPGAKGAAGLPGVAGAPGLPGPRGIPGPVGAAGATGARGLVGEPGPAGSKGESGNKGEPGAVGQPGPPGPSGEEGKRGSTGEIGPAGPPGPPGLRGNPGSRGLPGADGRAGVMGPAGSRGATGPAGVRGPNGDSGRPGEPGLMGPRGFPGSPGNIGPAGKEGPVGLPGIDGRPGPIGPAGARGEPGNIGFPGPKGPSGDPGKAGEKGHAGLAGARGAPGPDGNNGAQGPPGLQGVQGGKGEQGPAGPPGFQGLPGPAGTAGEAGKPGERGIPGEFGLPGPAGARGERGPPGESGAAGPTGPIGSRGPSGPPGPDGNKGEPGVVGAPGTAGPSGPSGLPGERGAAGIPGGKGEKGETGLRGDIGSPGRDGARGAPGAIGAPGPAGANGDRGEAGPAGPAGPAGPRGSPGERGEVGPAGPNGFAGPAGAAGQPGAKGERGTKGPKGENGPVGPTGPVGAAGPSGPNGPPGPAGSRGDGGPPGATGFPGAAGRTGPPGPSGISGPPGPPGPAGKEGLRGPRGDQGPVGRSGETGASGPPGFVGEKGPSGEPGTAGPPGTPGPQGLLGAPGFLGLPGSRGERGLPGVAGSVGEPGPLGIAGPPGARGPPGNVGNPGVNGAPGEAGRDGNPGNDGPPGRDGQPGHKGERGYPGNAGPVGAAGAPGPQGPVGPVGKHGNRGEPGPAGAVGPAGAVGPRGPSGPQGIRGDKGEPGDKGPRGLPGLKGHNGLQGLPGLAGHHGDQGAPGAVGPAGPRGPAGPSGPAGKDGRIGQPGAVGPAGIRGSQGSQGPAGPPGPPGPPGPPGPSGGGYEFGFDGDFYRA

Substance: Yersinia enterocolitica adhesin YadA head domains with a C-terminal His6-tag (domain or fragment)
- percent binding at pH 4: 50%
